Source: US11857648B2, “Dimerization strategies and compounds for molecular imaging and/or radioimmunotherapy” (UNIVERSITY OF PITTSBURGH—OF THE COMMONWEALTH SYSTEM OF …, priority 2016, dated 2024)

Key:
[1] = PET/CT imaging, orthotopic xenograft mouse model; assay type: in vivo, Balb/c mice; conditions: Balb/c, mouse, iv, total radioactivity, 1 hour post injection
Experimental: (§1) In vivo PET/CT imaging was conducted in Balb/c mice. One week after the orthotropic implantation of 1×10^6 luciferase-transfected KPCP cancer cells into the pancreas of Balb/c mice, the mice were used for PET imaging. Either the CNGRC-(^68Ga)NOTA-RGDyK heterodimer (“CNGRC” disclosed as SEQ ID NO: 1), (^68Ga)NOTA(CNGRC) (“CNGRC” disclosed as SEQ ID NO: 1), or (^68Ga)NOTA(RGDyK)] were injected into the bloodstream via tail vein injection. Blocking studies were conducted for the heterodimer studies by co-injecting 100× of CNGRC (SEQ ID NO: 1) and RGDyK. Small animal PET/CT was performed at 1 hour post injection of tracers (FIGS. 15A-15C).

[2] = test system: luciferase-transfected KPCP cancer cells; test: PET/CT imaging, orthotopic xenograft mouse model; assay type: in vivo, Balb/c mice; conditions: 1 hour post injection
Experimental: as §1

[3] = test system: bxpc3 and 4T1 tumor xenografts; test: PET/CT imaging, subcutaneous xenograft mouse model; assay type: in vivo, NCr nude mice; conditions: 1 hour post injection
Experimental: In vivo PET/CT imaging was conducted in NCr nude mice bearing bxpc3 (human pancreatic adenocarcinoma cell line) and 4T1 (a murine breast cancer cell line that overexpresses integrin αvβ3 and CD13) tumor xenografts.
Mice were injected with bxpc3 cells (1 million cells in 150 μL PBS) into the subcutaneous flank of the right shoulder and 4T1 cells (1 million cells in 150 μL PBS) into the subcutaneous flank of the left shoulder.

[4] = PET/CT imaging, spontaneous transgenic mouse model; conditions: KCH (Pdx1-Cre;K-RasG12D/+; HMGB1−/−), mouse, in vivo, iv, total radioactivity, 1 hour post injection
Experimental: (§2) In vivo PET/CT imaging was conducted in the genetically engineered KCH (Pdx1-Cre;K-RasG12D/+; HMGB1−/−) mouse model. High mobility group box 1 (HMGB1) is a critical regulator of autophagy, a major pathway for degradation of effete proteins and damaged organelles, and the conditional genetic ablation of HMGB1 limited to the pancreas inhibits autophagy, promotes proliferation, activates normally quiescent pathways, and renders mice extraordinarily sensitive to K-RasG12D/+-driven pancreatic carcinogenesis. The progression of PanINs from low grade PanINI to high grade PanIN3 could be observed as early as seven days (normally three-nine months) after birth in KCH (Pdx1-Cre;K-RasG12D/+;HMGB1−/−). PET imaging normally was performed˜6 weeks old KCH mice.
(§3) Either the CNGRC-(^68Ga)NOTA-RGDyK (“CNGRC” disclosed as SEQ ID NO: 1) heterodimer, (^68Ga)NOTA(CNGRC) (“CNGRC” disclosed as SEQ ID NO: 1), or (^68Ga)NOTA(RGDyK)] were injected into the bloodstream via tail vein injection. Blocking studies were conducted for the heterodimer studies by co-injecting 100× of CNGRC (SEQ ID NO: 1) and RGDyK. Small animal PET/CT was performed at 1 hour post injection of tracers (FIGS. 16A-16D).

[5] = test system: KCH (Pdx1-Cre;K-RasG12D/+; HMGB1−/−) mouse model; test: PET/CT imaging, spontaneous transgenic mouse model
Experimental: as §2, §3

**Q.** Which tissue uptake at 1 h ([1]; blood, read-out: uptake in blood) does the source give for `N=C(N)NCCC[C@@H]1NC(=O)CNC(=O)[C@H](CC(N)=O)NC(=O)[C@@H](NC(=O)CCOCCOCCOCCOCCNC(=O)C(CCn2nnc3c2CCC2C(CC3)C2COC(=O)NCCOCCOCCOCCOCCC(=O)NCCCC[C@@H]2NC(=O)[C@@H](Cc3ccc(O)cc3)NC(=O)[C@H](CC(=O)O)NC(=O)CNC(=O)[C@H](CCCNC(=N)N)NC2=O)N2CCN(CC(=O)O)CCN(CC(=O)O)CC2)CSSC[C@@H](C(N)=O)NC1=O` (some centres unmarked) [CNGRC-(^68Ga)NOTA-RGDyK, metal not drawn] here?
**A.** The tissue uptake at 1 h was 0.1 %ID/g.

**Q.** And the tissue uptake at 1 h ([1]; kidney, read-out: uptake in kidney)?
**A.** Its tissue uptake at 1 h is 2.2 %ID/g.

**Q.** And the tissue uptake at 1 h ([1]; liver, read-out: uptake in liver)?
**A.** The tissue uptake at 1 h was 1.8 %ID/g.

**Q.** What about the tissue uptake at 1 h ([1]; muscle, read-out: uptake in muscle) of the same compound?
**A.** The tissue uptake at 1 h was 0.1 %ID/g.

**Q.** And the tissue uptake at 1 h ([1]; pancreas, read-out: uptake in pancrease)?
**A.** Its tissue uptake at 1 h is 0.36 %ID/g.

**Q.** And the tissue uptake at 1 h ([1]; spleen, read-out: uptake in spleen)?
**A.** Its tissue uptake at 1 h is 1.1 %ID/g.

**Q.** And the in vivo performance [2]?
**A.** Its in vivo performance is “longer blood retention, better tumor/non-tumor ratios”.

**Q.** And the “uptake in orthotopic tumor” value [2]?
**A.** Its value is 1.4 % ID/g.

**Q.** What about the in vivo performance [3] of the same compound?
**A.** The in vivo performance was “longer blood retention, better tumor/non-tumor ratios”.

**Q.** And the tissue uptake at 1 h ([4]; uptake in blood)?
**A.** The tissue uptake at 1 h was 0.23 %ID/g.

**Q.** What about the tissue uptake at 1 h ([4]; uptake in kidney) of the same compound?
**A.** Its tissue uptake at 1 h is 5 %ID/g.

**Q.** What about the tissue uptake at 1 h ([4]; uptake in liver) of the same compound?
**A.** The tissue uptake at 1 h was 4.7 %ID/g.

**Q.** And the tissue uptake at 1 h ([4]; uptake in muscle)?
**A.** Its tissue uptake at 1 h is 0.38 %ID/g.

**Q.** What about the tissue uptake at 1 h ([4]; uptake in spleen) of the same compound?
**A.** Its tissue uptake at 1 h is 3.1 %ID/g.

**Q.** And the in vivo performance ([5]; 1 hour post injection)?
**A.** The in vivo performance was “longer blood retention, better tumor/non-tumor ratios”.

**Q.** What about the “uptake in malignant pancreas” value ([5]; 1 hour post injection) of the same compound?
**A.** The value was 5.9 % ID/g.

**Q.** What about the specific tumor uptake ([5]; PET imaging) of the same compound?
**A.** Its specific tumor uptake is “showed specific tumor uptake”.
